Reference: US20150284453A1, “METHOD OF PROTECTING CARDIAC FUNCTION” (Declmmune Therapeutics, Inc., priority 2012, published 2015)

B1: murine 21G6 mAb: murine anti-N2 monoclonal antibody from hybridoma ATCC Accession Number PTA-9393 (antibody, V domains shown)
VH: QVQLQQPGAELVKPGASVKLSCKASGYTFTSYYMYWVKQRPGQGLEWIGGINPSNGGTNFNEKFKSKATLTVDKSSSTAYMQLSSLTSEDSAVYYCTRWGYDREWFAYWGQGTLVTVSA
VL: DIVMTQAAPSVPVTPGESVSISCRSSKSLLHSNGNTYLYWFLQRPGQSPQVLIYRMSNLASGVPDRFSGSGSGTAFTLRISRVEAEDVGVYYCMQHLEYPFTFGSGTKLEIKR

Key:
Type in all cases: in vivo
[1] = test system: swine model of myocardial infarction; assay: Myocardial infarct size by Evan's blue/TTC staining, swine model of myocardial infarction (1 h LAD occlusion, 5 d reperfusion); settings: 5d post-reperfusion, TTC staining; i.v. N2 4.6 mg/kg 5 min or murine 21G6 mAb 2 mg/kg 30 min prior to reperfusion
Protocol: FIG. 2A to 2C are plots showing that N2 peptide and murine 21G6 mAb reduce infarct size in a swine model of myocardial infarction. Swine were subjected to 1 h LAD occlusion and 5 d reperfusion. Prior to reperfusion either saline, N2 (4.6 mg/kg), or murine 21G6 mAb (2 mg/kg) was injected i.v. into the swine. Following 5 d reperfusion, myocardial sections were stained with Evan's blue and TTC. (A) Myocardial infarct size expressed as a percentage of the left ventricle (LV). (B) Percentage of area at risk (AAR) to the LV. (C) Myocardial infarct size expressed as a percentage of the AAR. # represents p<0.05; ## represents p<0.01; ### represents p<0.001. Each symbol represents data from one animal. (Note: Due to poor perfusion with Evan's blue dye in one animal, n=5 in panels B and C). […] Saline-treated animals developed approximately a 20% infarct of the left ventricle as assessed by TTC staining at 5d post-reperfusion as predicted.

[2] = test system: porcine model of myocardial infarction; assay: Cardiac function (LVEF, fractional shortening) by echocardiography, porcine model of myocardial infarction; settings: for increase in EF compared to saline controls at the same time point: 21 days post-reperfusion, 3D TTE, n of 3 per group; for ejection fraction (EF) 21 d post-reperfusion: Quinones method; for ejection fraction (EF) 21 d post-reperfusion / LVEF at baseline: n=3/group; for recovery of cardiac function by fractional shortening (FS) compared to baseline: 21d reperfusion period; for LVEF at baseline: baseline (prior to occlusion procedure)
Source text: FIG. 4A to 4C are graphs showing measurements of cardiac function by echocardiography. (A) Non-corrected % LVEF as measured by 2D TTE at 21d post-reperfusion compared to baseline using Quinones method (described below in the Examples section). (B) % LVEF as measured by 3D TTE at 21d post-reperfusion. (C) Fractional shortening as measured by 2D TTE at 21d post-reperfusion compared to baseline. # represents a p<0.05. n=3/group.
To determine the effect of N2 peptide and the 21G6 antibody treatment on cardiac function, echocardiography was employed. Echocardiography is widely accepted for evaluation of cardiac function and is utilized in emergency and operating rooms as well as intensive care departments in most hospitals. Ventricular function as assessed by echocardiography is accompanied by low intra-observer and inter-observer variability and assessment of left ventricular ejection fraction remains the standard of care in clinical practice. In addition, fractional shortening (FS), another measure of left ventricular function, was also calculated based on two-dimensional (2D) measurements at all time points measured at mid-ventricle and is defined as the difference between end-diastolic and end-systolic dimensions divided by end-diastolic dimension.
For animals in which functional data was generated (N2: n of 3, murine 21G6 mAb: n of 3, Saline: n of 3), cardiac imaging was performed via transthoracic echocardiography (TTE) at baseline (prior to occlusion procedure), and then up to 21d following reperfusion. For baseline TTE images were obtained using a high-frequency 2D probe and a Philips iE33 xMATRIX scanner (Andover, Mass.). Prior to sacrifice at 21 days, both 2D and 3D epicardial echocardiography images were obtained after median sternotomy was performed. 3D volumetric data sets were ECG-gated from 4-7 consecutive heartbeats. Additionally, 3D left ventricular volumes and ejection fractions were computed from the epicardial 3D datasets.
Prior to the occlusion procedure, a baseline TTE image was recorded. Afterwards, TTE was performed. Animals were treated in an identical manner as in the 5 day study for the catheterization procedure except that animals were maintained for an additional 16 days. The echocardiographer was blinded to the treatment schedule.
At baseline, saline, N2- and murine 21G6 mAb -treated animals had LVEFs of 53%, 52.6%, and 51%, respectively.
• Intravenous amiodarone infusion (1 mg/min) • Systemic heparinization (˜150 units/kg) • Percutaneously access of LAD via right (R) femoral artery • Occlusion mid-LAD with balloon catheter for 60 min as follows: Using a fluoroscopically guided balloon catheter approach, the left anterior descending coronary artery (LAD) was occluded for 60 min at a defined point distal to the 2nd and 3rd diagonal branches. […]

[3] = test system: swine model of myocardial infarction; assay: Serum cardiac troponin-T (cTnT) levels, swine model of myocardial infarction; settings: N2 4.6 mg/kg or m21G6 2 mg/kg i.v. prior to reperfusion; for reduction of peak serum cTnT levels as compared to saline controls: 8-120 h post-reperfusion; for reduction of cTnT AUC values as compared to saline controls: five day reperfusion period
Protocol: FIGS. 3A and 3B are plots showing the effect of N2 peptide and murine 21G6 mAb (m21G6) on serum cardiac troponin-T (cTnT) levels. Swine were subjected to 1 h LAD occlusion and 5 d reperfusion. Prior to reperfusion either saline, N2 (4.6 mg/kg), or m21G6 (2 mg/kg) was injected i.v. into the swine. Serum samples were taken at several time points as described in text and analyzed for cTnT. (A) Peak cTnT levels. (B) cTnT levels over 5d reperfusion. # represents p<0.05; ## represents p<0.01. Each symbol represents data from one animal. Cardiac troponin-T (cTnT), a well-established marker for cardiac tissue injury, from 8-120 h post-reperfusion, was also analyzed. […] Saline-treated animals developed approximately a 20% infarct of the left ventricle as assessed by TTC staining at 5d post-reperfusion as predicted • Serial EKGs to document ST elevation • Angiogram q20 min to confirm complete occlusion • Lidocaine and defibrillation as needed • Administration of control vs. N2 peptide 5 minutes prior to reperfusion or mAb 21G6 30 minutes before reperfusion • Measure trend in cardiac enzymes (CK, cTnT) • Cardiectomy on Day 5 or Day 21 via cardioplegic arrest • LAD ligation at site of occlusion followed by injection of Evans blue dye via aortic cannula gives estimate of Area At Risk (AAR) • Incubation of transverse sections in TTC for 15 min at 37° C. • Calculate % infarction by computerized planimetry • 21G6 Alexa 568(1 mg/ml) infusion was initiated 2 min prior to reperfusion at ≈1 m1/min for ≈30 min via coronary catheter (results shown in FIG. 1 showing localization of the antibody to the injured left ventricle and not to the uninjured right ventricle) • Heart was perfused with cardioplegic solution 1 h post-ischemia, harvested, sectioned, and punch biopsies taken in the area at risk and in right ventricle • Sections were stained with anti-swine CD31 FITC (Serotec) 1/20 dilution • Using a fluoroscopically guided balloon catheter approach, the left anterior descending coronary artery (LAD) was occluded for 60 min at a defined point distal to the 2nd and 3rd diagonal branches. Saline-treated animals developed approximately a 20% infarct of the left ventricle as assessed by TTC staining at 5d post-reperfusion as predicted.

Row | Molecule | reduction of infarct size as a percentage of the area at risk (AAR) [1] [%] | increase in EF compared to saline controls at the same time point [2] [%] | ejection fraction (EF) 21 d post-reperfusion ([2]; 2D TTE) [%] | recovery of cardiac function by fractional shortening (FS) compared to baseline ([2]; 2D TTE) [%] | LVEF at baseline ([2]; 2D TTE) [%] | reduction of peak serum cTnT levels as compared to saline controls [3] | reduction of cTnT AUC values as compared to saline controls [3] | recovery of cardiac function (LVEF at 21 d relative to baseline) ([2]; 21 d post-reperfusion vs baseline, 2D TTE, saline-treated 74.7%) [%]
1 | LMKNMDPLNDNV [N2 peptide] | 31 | 29 | 52.0 | 98.8 | 52.6 | no effect | no effect | –
2 | B1 | 49 | 21 | 50.4 | 99.4 | 51 | 60% | 47% | 98.8
